Results from IntAct's records for PubMed 34591612.

target: brca1_human BRCA1 (UniProt P38398)
Sequence (P38398 whole entry, looked up): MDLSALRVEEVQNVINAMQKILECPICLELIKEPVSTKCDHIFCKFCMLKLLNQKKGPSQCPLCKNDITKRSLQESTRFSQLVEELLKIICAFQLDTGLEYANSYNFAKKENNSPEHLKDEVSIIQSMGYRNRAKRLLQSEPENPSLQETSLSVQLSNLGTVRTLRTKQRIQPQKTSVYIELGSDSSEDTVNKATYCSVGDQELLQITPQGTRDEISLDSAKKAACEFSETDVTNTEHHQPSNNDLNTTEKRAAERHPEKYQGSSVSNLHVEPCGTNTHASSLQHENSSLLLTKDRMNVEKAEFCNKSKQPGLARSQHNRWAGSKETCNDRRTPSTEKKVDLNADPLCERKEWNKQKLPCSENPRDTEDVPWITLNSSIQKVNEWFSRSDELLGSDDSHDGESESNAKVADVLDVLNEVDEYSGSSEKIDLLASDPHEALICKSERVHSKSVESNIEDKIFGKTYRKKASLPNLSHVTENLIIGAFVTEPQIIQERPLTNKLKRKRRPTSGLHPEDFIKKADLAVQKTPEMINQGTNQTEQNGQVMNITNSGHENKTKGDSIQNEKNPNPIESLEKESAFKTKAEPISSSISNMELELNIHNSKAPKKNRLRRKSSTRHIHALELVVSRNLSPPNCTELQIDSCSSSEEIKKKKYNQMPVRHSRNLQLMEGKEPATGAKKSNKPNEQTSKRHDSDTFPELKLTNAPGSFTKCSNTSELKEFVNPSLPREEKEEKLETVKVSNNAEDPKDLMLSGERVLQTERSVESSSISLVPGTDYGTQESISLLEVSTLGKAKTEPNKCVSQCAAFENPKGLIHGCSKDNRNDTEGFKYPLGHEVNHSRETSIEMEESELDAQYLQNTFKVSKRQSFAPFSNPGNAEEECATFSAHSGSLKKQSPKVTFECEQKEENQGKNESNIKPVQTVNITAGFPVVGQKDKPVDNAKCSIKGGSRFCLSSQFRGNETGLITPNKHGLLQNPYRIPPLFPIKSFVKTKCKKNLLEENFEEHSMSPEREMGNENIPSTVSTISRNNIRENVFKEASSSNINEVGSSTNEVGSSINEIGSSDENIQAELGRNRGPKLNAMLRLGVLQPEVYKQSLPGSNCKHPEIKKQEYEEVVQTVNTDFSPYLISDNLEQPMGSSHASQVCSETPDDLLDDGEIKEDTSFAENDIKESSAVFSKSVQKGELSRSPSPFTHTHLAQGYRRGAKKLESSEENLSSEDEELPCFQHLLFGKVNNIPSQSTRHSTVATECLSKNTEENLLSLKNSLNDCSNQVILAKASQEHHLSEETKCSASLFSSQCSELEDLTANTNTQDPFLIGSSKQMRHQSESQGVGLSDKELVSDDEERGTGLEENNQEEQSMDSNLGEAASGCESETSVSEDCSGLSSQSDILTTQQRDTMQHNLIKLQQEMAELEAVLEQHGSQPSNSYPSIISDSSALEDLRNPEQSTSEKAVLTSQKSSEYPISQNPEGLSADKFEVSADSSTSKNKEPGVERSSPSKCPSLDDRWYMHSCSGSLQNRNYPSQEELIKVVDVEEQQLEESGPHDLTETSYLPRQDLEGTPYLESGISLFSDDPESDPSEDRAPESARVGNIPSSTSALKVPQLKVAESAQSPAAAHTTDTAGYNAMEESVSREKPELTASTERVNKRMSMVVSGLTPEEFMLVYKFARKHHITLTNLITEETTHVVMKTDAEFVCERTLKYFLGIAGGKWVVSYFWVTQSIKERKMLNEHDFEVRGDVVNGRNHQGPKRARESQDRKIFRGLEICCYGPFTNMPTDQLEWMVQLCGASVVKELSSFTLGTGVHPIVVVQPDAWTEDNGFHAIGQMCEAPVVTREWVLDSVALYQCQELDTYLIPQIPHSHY

Sequence of Neurabin-2 (Homo sapiens), Q96SB3 F451A (Q96SB3 whole entry F451A): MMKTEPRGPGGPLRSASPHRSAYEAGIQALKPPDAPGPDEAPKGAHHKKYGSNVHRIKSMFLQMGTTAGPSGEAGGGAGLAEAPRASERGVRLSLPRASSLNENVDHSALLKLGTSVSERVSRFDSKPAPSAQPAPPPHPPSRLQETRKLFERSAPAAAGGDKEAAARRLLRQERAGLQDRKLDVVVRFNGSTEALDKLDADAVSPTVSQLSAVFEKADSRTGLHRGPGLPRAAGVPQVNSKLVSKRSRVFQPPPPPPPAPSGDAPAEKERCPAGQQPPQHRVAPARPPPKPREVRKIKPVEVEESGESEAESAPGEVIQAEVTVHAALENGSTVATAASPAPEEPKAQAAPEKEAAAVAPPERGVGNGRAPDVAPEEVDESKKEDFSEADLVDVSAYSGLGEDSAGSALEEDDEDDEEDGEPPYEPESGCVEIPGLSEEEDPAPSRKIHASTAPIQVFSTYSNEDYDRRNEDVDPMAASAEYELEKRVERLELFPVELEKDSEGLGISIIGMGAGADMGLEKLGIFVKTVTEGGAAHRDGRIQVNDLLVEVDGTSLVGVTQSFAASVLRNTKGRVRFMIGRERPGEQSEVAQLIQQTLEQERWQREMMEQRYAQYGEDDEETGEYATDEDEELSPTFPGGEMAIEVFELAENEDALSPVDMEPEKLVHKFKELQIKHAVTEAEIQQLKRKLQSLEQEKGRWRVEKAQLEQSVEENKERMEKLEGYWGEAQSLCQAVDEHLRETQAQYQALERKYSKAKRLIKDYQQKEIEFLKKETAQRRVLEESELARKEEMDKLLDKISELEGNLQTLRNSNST

Row | Substance | effect of a mutation on the interaction
1 | Neurabin-2 (Homo sapiens), Q96SB3 F451A | increasing interaction
2 | Neurabin-2 (Homo sapiens), Q96SB3 S212A | decreasing interaction
3 | Neurabin-2 (Homo sapiens), Q96SB3 S248A | increasing interaction
4 | Neurabin-2 (Homo sapiens), Q96SB3 S635A | disrupting interaction
